In paper PMC2190859:

Molecular target: collagen
Test: cell adhesion assay

Substance: very late antigen 4 (VLA-4, alpha4 beta1 integrin) (from UniProt P13612;P05556) (receptor)
- percent of cells binding: < 5%
